From the supplement of paper PMC7877785
± gives the uncertainty stated by the source.

Test: self-splicing fitness, log relative to wild type (ln ratio); higher = more splicing; Tetrahymena group I intron in knt gene, E. coli kanamycin selection, DiMSum; sequences stand for … in CUCUCU…GGAGGGAAAAGUUAUCAGGCAUGCACCUGGUAGCUAGUCUUUAAACCAAUAGAUUGCAUCGGUUUAAAAGGCAAGACCGUCAAAUUGCGGGAAAGGGGUCAACAGCCGUUCAGUACCAAGUCUCAGGGGAAACUUUGAGAUGGCCUUGCAAAGGGUAUGGUAAUAAGCUGACGGACAUGGUCCUAACCACGCAGCCAAGUCCUAAGUCAACAGAUCUUCUGUUGAUAUGGAUGCAGUUCACAGACUAAAUGUCGGUCGGGGAAGAUGUAUUCUUCUCAUAAGAUAUAGUCGGACCUCUCCUUAAUGGGAGCUAGCGGAUGAAGUGAUGCAACACUGGAGCCGCUGGGAACUAAUUUGUAUGCGAAAGUAUAUUGAUUAGUUUUGGAGUACUCGUGGUCG
Procedure, shortened: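 Pooled colonies went to amplicon sequencing on an Illumina HiSeq 2500 after six replicate transformations. The plates were LB agar with 100 μg/mL carbenicillin, 50 μM IPTG and 0.2% rhamnose, with or without 25 μg/mL kanamycin, incubated overnight at 37°C or 30°C. The E. coli BL21(DE3) library had all eight P1ex-region intron nucleotides randomised, the intron placed in the knt kanamycin-resistance gene on pET-22b(+). DiMSum fitness is the error-weighted combination of replicate fold changes, kanamycin against none, normalised to wild type.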

| Sequence | self-splicing fitness (ln) (30 °C) | self-splicing fitness (ln) (37 °C) |
| --- | --- | --- |
| CGGUAGCAAUAUUACGUCUC | -2.46 ± 0.12 | -1.86 ± 0.13 |
| CGGUAGCAAUAUUACGUGUU | -4.12 ± 0.28 | -3.09 ± 0.27 |
| CGUAAGCAAUAUUACGAAAG | -1.98 ± 0.13 | -0.821 ± 0.12 |
| CGUAAGCAAUAUUACGAACG | -3.04 ± 0.18 | -1.76 ± 0.22 |
| CGUAAGCAAUAUUACGACAG | -0.247 ± 0.11 | -0.867 ± 0.14 |
| CGUAAGCAAUAUUACGACGG | 0.0203 ± 0.061 | -0.0967 ± 0.082 |
| CGUAAGCAAUAUUACGACUG | -0.564 ± 0.081 | 0.421 ± 0.13 |
| CGUAAGCAAUAUUACGAGGG | -2.74 ± 0.19 | -1.86 ± 0.24 |
| CGUAAGCAAUAUUACGAUCG | -1.03 ± 0.11 | -0.0852 ± 0.13 |
| CGUAAGCAAUAUUACGCACC |  | -0.957 ± 0.39 |
| CGUAAGCAAUAUUACGCAUG | -1.88 ± 0.13 | -0.863 ± 0.13 |
| CGUAAGCAAUAUUACGCCGU | -3.89 ± 0.26 | -2.65 ± 0.21 |
| CGUAAGCAAUAUUACGCUCG | -1.8 ± 0.17 | -0.572 ± 0.23 |
| CGUAAGCAAUAUUACGGAAC |  | -1.39 ± 0.39 |
| CGUAAGCAAUAUUACGGCGG | -0.217 ± 0.072 | -0.126 ± 0.096 |
| CGUAAGCAAUAUUACGGCUG | -0.231 ± 0.062 | -0.177 ± 0.095 |
| CGUAAGCAAUAUUACGGCUU | -3.69 ± 0.21 | -2.02 ± 0.25 |
| CGUAAGCAAUAUUACGUACU | -0.922 ± 0.098 | -0.936 ± 0.11 |
| CGUAAGCAAUAUUACGUCCC | -3.09 ± 0.38 | -1.21 ± 0.29 |

| Sequence | self-splicing fitness (ln) (30 °C) | self-splicing fitness (ln) (37 °C) |
| --- | --- | --- |
| CGUAAGCAAUAUUACGUGAA | -3.19 ± 0.14 | -1.61 ± 0.15 |
| CGUAAGCAAUAUUACGUGGA | -2.93 ± 0.2 | -2.44 ± 0.24 |
| CGUAAGCAAUAUUACGUGUA | -3.25 ± 0.22 | -0.592 ± 0.13 |
| CGUAAGCAAUAUUACGUUGU | -3.29 ± 0.18 | -2.53 ± 0.22 |
| CGUCAGCAAUAUUACGAAGG | -0.693 ± 0.074 | -0.652 ± 0.11 |
| CGUCAGCAAUAUUACGACAG | -0.576 ± 0.097 | 0.297 ± 0.13 |
| CGUCAGCAAUAUUACGAGGC | -4.66 ± 0.36 | -3.2 ± 0.47 |
| CGUCAGCAAUAUUACGAUAU | -2.13 ± 0.13 | -0.978 ± 0.13 |
| CGUCAGCAAUAUUACGCAAC | -3.74 ± 0.3 | -2.47 ± 0.23 |
| CGUCAGCAAUAUUACGCAGG | -3.85 ± 0.3 | -1.69 ± 0.18 |
| CGUCAGCAAUAUUACGCCGG | -1.69 ± 0.12 | -1.27 ± 0.17 |
| CGUCAGCAAUAUUACGCUAA | -2.28 ± 0.18 | -0.0328 ± 0.15 |
| CGUCAGCAAUAUUACGCUCG | -2.69 ± 0.18 | -1.63 ± 0.15 |
| CGUCAGCAAUAUUACGCUUA | -2.18 ± 0.23 | -1.14 ± 0.17 |
| CGUCAGCAAUAUUACGGACC | -0.189 ± 0.17 | 0.292 ± 0.17 |
| CGUCAGCAAUAUUACGGAGG | -1.93 ± 0.1 | -1.57 ± 0.16 |
| CGUCAGCAAUAUUACGGCAG | -0.866 ± 0.064 | -0.287 ± 0.077 |
| CGUCAGCAAUAUUACGGGCC | -1.25 ± 0.087 | -0.797 ± 0.11 |
| CGUCAGCAAUAUUACGGUUC | -3.67 ± 0.31 | -0.0181 ± 0.15 |
